B1: Azoarcus group I ribozyme (parent)
chain: GUGCCUUGCGCCGGGAAACCACGCAAGGGAUGGUGUCAAAUUCGGCGAAACCUAAGCGCCCGCCCGGGCGUAUGGCAACGCCGAGCCAAGCUUCGGCGCCUGCGCCGAUGAAGGUGUAGAGACUAGACGGCACCCACCUAAGGCAAACGCUAUGGUGAAGGCAUAGUCCAGGGAGUGGCGAAAGUCACACAAACCGG

Variants of: B1
Assay: reverse-splicing fitness (ratio to wild type); higher = more active; in vitro selection; Mg2+ level not given
Procedure, shortened: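 An in vitro group I ribozyme library with randomized positions was T7-transcribed and gel-purified. In triplicate, 10 pmol RNA in EPPS pH 7.5 was reacted with 50 pmoles of a 30-nt RNA substrate for 1 h at 37 °C across several added MgCl2 levels (1–48 mM), then stopped with EDTA. Products were reverse transcribed from a substrate-complementary primer, PCR-amplified and sequenced (HiSeq 4000). Fitness is a variant's read proportion after selection over that before, normalised to wild type.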

Variant | reverse-splicing fitness
C82A A111U A145C C150A C169G U176C | 0.0169
C82A A111U A120U C150U C169U U176G | 0.00262
C82A A111U A120U C150U C169U U176C | 0.00448
C82A A111U A120U C150U C169U U176A | 0.00662
C82A A111U A145C C169U | 0.0123
C82A A111U A145C C169A | 0.00733
C82A A111U A145C C169G | 0.00993
C82A A111U A120U A145G C169A U176C | 0.00356
C82A A111U A120U A145G C169A U176G | 0.00239
C82A A111U A120U A145G C169A U176A | 0.00409
C82A A111U A120U A145U C150A C169U U176G | 0.00245
C82A A111U A120U A145U C150A C169U U176C | 0.00277
C82A A111U A120U A145U C150A C169U U176A | 0.00317
C82A A111U A120U C150A C169G U176G | 0.00222
C82A A111U A120U C150A C169G U176C | 0.00511
C82A A111U A120U C150A C169G U176A | 0.00956
C82A A111U A120U A145G C150G C169A U176A | 0.0119
C82A A111U A120U A145G C150G C169A U176G | 0.00618
C82A A111U A120U A145G C150G C169A U176C | 0.0099
C82A A111U A120U A145G C150A C169G U176A | 0.0104
C82A A111U A120U A145G C150A C169G U176C | 0.00688

Variant | reverse-splicing fitness
C82A A111U A120U A145G C150A C169G U176G | 0.003
C82A A111U A120U A145G C150A C169U U176G | 0.00326
C82A A111U A120U A145G C150A C169U U176A | 0.00626
C82A A111U A120U A145G C150A C169U U176C | 0.00543
C82A A111U A120U A145C C150A U176G | 0.00255
C82A A111U A120U A145C C150A U176A | 0.00368
C82A A111U A120U A145C C150A U176C | 0.00426
C82A A111U A145G C150A | 0.0371
C82A A111U A120U A145U C150U C169G U176A | 0.00409
C82A A111U A120U A145U C150U C169G U176G | 0.00224
C82A A111U A120U A145U C150U C169G U176C | 0.00351
C82A A111U A120U A145C C150U C169U U176G | 0.00236
C82A A111U A120U A145C C150U C169U U176A | 0.00291
C82A A111U A120U A145C C150U C169U U176C | 0.00282
C82A A111U A145C C150U C169U U176A | 0.0138
C82A A111U A145C C150U C169U U176G | 0.00661
C82A A111U A145C C150U C169U U176C | 0.00945
C82A A111U A120U C150A U176G | 0.0037
C82A A111U A120U C150A U176C | 0.00653
C82A A111U A120U C150A U176A | 0.00697
C82A A111U A120U C150U C169G U176C | 0.00496

Variant | reverse-splicing fitness
C82A A111U A120U C150U C169G U176A | 0.00965
C82A A111U A120U C150U C169G U176G | 0.00271
C82A A111U A120U A145C C169U U176G | 0.00193
C82A A111U A120U A145C C169U U176A | 0.00334
C82A A111U A120U A145C C169U U176C | 0.0036
C82A A111U A120U A145U C150A U176A | 0.00486
C82A A111U A120U A145U C150A U176G | 0.00236
C82A A111U A120U A145U C150A U176C | 0.00625
C82A A111U A120U C150G | 0.00757
C82A A111U A120U C150U | 0.016
C82A A111U A120U C150A | 0.00876
C82A A111U A120U A145C C150U C169G U176A | 0.00366
C82A A111U A120U A145C C150U C169G U176G | 0.00248
C82A A111U A120U A145C C150U C169G U176C | 0.00274
C82A A111U A120U A145C C150G C169A U176A | 0.00316
C82A A111U A120U A145C C150G C169A U176G | 0.00234
C82A A111U A120U A145C C150G C169A U176C | 0.00302
C82A A111U A120U C150U C169A U176A | 0.00575
C82A A111U A120U C150U C169A U176C | 0.00344
C82A A111U A120U C150U C169A U176G | 0.00226
C82A A111U A145G C150A C169U U176A | 0.0158

Variant | reverse-splicing fitness
C82A A111U A145G C150A C169U U176C | 0.0161
C82A A111U A120U A145C C150U C169G | 0.0029
C82A A111U A120U A145C C150U C169A | 0.00277
C82A A111U A120U A145C C150U C169U | 0.00328
C82A A111U A120U A145C C150G U176A | 0.00326
C82A A111U A120U A145C C150G U176G | 0.00265
C82A A111U A120U A145C C150G U176C | 0.00415
C82A A111U A120U A145U C169G U176C | 0.00323
C82A A111U A120U A145U C169G U176A | 0.00291
C82A A111U A120U A145U C169G U176G | 0.00199
C82A A111U A120G U176G | 0.00705
C82A A111U A120U C150G U176C | 0.00606
C82A A111U A120U C150G U176G | 0.00265
C82A A111U A120U C150G U176A | 0.00499
C82A A111U A120U C169G U176A | 0.00417
C82A A111U A120U C169G U176G | 0.00236
C82A A111U A120U C169G U176C | 0.00453
C82A A111U A145C C150A U176C | 0.0157
C82A A111U A145C C150A U176A | 0.0125
C82A A111U A145C C150A U176G | 0.00842
C82A A111U A145C C150G C169A U176A | 0.0086

Reference: the RNAGym collection of RNA variant scans (doi:10.1093/molbev/msab373)
